{
  "source": "paper PMC7401801",
  "target": "CRM1 (UniProt O14980)",
  "assay": "GFP IP of CRM1-EGFP, Flag blot",
  "details": "reference: Flag-TFEB wild type; sites S142",
  "data": [
    {"substance": "TFEB (from UniProt P19484) Flag-TFEB(S142A)", "values": [
      {"measurement": "binding against the reference", "value": "weaker"}
    ]}
  ]
}
